The results in this text go back to patent US11407811B2, “Fusion protein, preparation method therefor and use thereof” (JIANGSU RONGTAI BIOTECH CO., LTD., priority 2017, dated 2022).

One data set relates to mouse spleen lymphocytes. Nature of the data set: Proliferation of mouse spleen lymphocytes (ConA, MTT). It counts as cell-based. The conditions noted are these: for A570 nm/A630 nm / PI (%): with ConA 5 μg/mL. The method, then:
Tris-NH4Cl was used to break the red blood cells, which were allowed to stand in an ice water bath for 4 min and centrifuged (1000 rpm, 5 min), the supernatant was discarded, and the cells were washed twice with sterile PBS.
The cells were statically cultured in a cell incubator at 37° C. for 48 h. After the completion of the culture, 20 μL of MTT was added to each well, and the culture was continued for 4 h. Finally, all the solutions in each well were discarded, 100 μL of DMSO was added to each well, and the mixture was shaken and detected by a microplate reader for OD value at 570 nm. 5 parallels were preformed for per well.

Data set [1] relates to peritoneal capillary permeability in mice. Description: Peritoneal capillary permeability in mice (HAc, Evans blue). In kind it is in vivo. Conditions: for Exudation rate (OD590) / PI (%): mice. The method, then: The drug was administered once by injection (EDSM needed to be administered twice a day), and the blank model group was given an equal volume of physiological saline and fed normally. On the 5th day, a 5 g/L Evans blue physiological saline solution was injected into the tail vein at […], followed by intraperitoneal injection ([…]) of a HAc solution (6 mL/L) to induce inflammation. After 20 min, the mice were sacrificed by cervical dislocation. 5 mL of physiological saline was intraperitoneally injected, the abdomen was gently rubbed for 2 min, the abdominal cavity was cut, a peritoneal washing solution was collected and centrifuged at 4000 rpm for 10 min, 1 mL of supernatant was taken, and 3 mL of physiological saline was added to obtain 4 mL of dilution. The absorbance OD value of the dilution was measured by an ultraviolet spectrophotometer at a wavelength of 590 nm, and the amount of pigment exudation was expressed by the OD590 nm value, and the peritoneal capillary permeability in mice was examined.

B1: Protein II: IgG2-Fc linked to antiangiogenesis polypeptide EDSM-Y via a flexible linker; SEQ ID NO: 17 (protein)
chain: ERKCCVECPPCPAPPVAGPSVFLFPPKPKDTLMISRTPEVTCVVVDVSHEDPEVQFNWYVDGVEVHNAKTKPREEQFNSTFRVVSVLTVVHQDWLNGKEYKCKVSNKGLPAPIEKTISKTKGQPREPQVYTLPPSREEMTKNQVSLTCLVKGFYPSDISVEWESNGQPENNYKTTPPMLDSDGSFFLYSKLTVDKSRWQQGNVFSCSVMHEALHNHYTQKSLSLSPGKGGGGSGGGGSGGGGSFQPVLHLVALNSPLSGGMRGIRGADFQCFQQARAVGLAGTFRAGGGGRGD
Regarding B1, in the data set on mouse spleen lymphocytes (compared with the ConA group), the “inhibition of mouse spleen lymphocytes” value is given as “could inhibit mouse spleen lymphocytes to some extent”. Moreover, the “A570 nm/A630 nm” value in the data set with mouse spleen lymphocytes (dose 8 μg/mL) is given as 0.5514 ± 0.0187; in the data set with mouse spleen lymphocytes (dose 32 μg/mL) it was 0.4637 ± 0.0155; with mouse spleen lymphocytes (dose 128 μg/mL), 0.3825 ± 0.0103. The “PI (%)” value in the data set on mouse spleen lymphocytes (dose 8 μg/mL) is reported as 6.84%; with mouse spleen lymphocytes (dose 32 μg/mL), 21.66%; in the data set with mouse spleen lymphocytes (dose 128 μg/mL), 35.38%; in data set [1] (dose 8 mg/kg), 26.09%; in data set [1] (dose 32 mg/kg) it was 50.72%; in data set [1] (dose 128 mg/kg), 53.62%. Besides, in data set [1] (in words), the “inhibition of the increase of peritoneal capillary permeability induced by glacial acetic acid” value is on record as “could significantly inhibit the increase of peritoneal capillary permeability”. The “Exudation rate (OD590)” value amounted to 0.51 ± 0.06 in data set [1] (dose 8 mg/kg), 0.34 ± 0.03 in data set [1] (dose 32 mg/kg) and 0.32 ± 0.07 in data set [1] (dose 128 mg/kg).
